Experimental findings from patent US20030186281A1, “Modified tetracycline repressor protein compositions and methods of use” (priority 2001, published 2003) are described below.

The test system of this series is tet operator sequence. Description: β-galactosidase activity of a tetracycline-regulated promoter in transformed E. coli with revTetR, in the presence and absence of anhydrotetracycline (atc). To be noted: for β-Galactosidase Activity, Cultured Without ATC: RevTetR isolate cultured in the absence of anhydrotetracycline (ATC); for β-Galactosidase Activity, Cultured With ATC: RevTetR isolate cultured in the presence of anhydrotetracycline (ATC). The format is cell-based, Escherichia coli. An outline of the steps: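 TetR(BD) chimera mutants (TetR(B) residues 1–50, TetR(D) 51–208) expressed in E. coli regulating a tet operator-controlled lacZ. β-Galactosidase measured in Miller units at 28 °C and 37 °C with and without anhydrotetracycline; reported as percent of maximal expression without Tet repressor.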

B1: TetRrevAD2/1: revTetR(BD) G21G L51L D53Y L55L A56P A61E (protein)
chain: MSRLDKSKVINSALELLNGVGIEGLTTRKLAQKLGVEQPTLYWHVKNKRALLYALPVEILERHHDYSLPAAGESWQSFLRNNAMSFRRALLRYRDGAKVHLGTRPDEKQYDTVETQLRFMTENGFSLRDGLYAISAVSHFTLGAVLEQQEHTAALTDRPAAPDENLPPLLREALQIMDSDDGEQAFLHGLESLIRGFEVQLTALLQIV
modifications: Modified tetracycline repressor
notes: revTetR(BD) G21G L51L D53Y L55L A56P A61E
For the molecule B1, the “β-Galactosidase Activity, Cultured Without ATC” value is 34.2242 and the “β-Galactosidase Activity, Cultured With ATC” value turned out to be 1.17.

B2: TetRrevAF5/3: revTetR(BD) E15G N18K R94H G96G G102V (protein)
chain: MSRLDKSKVINSALGLLKEVGIEGLTTRKLAQKLGVEQPTLYWHVKNKRALLDALAVEILARHHDYSLPAAGESWQSFLRNNAMSFRRALLRYHDGAKVHLVTRPDEKQYDTVETQLRFMTENGFSLRDGLYAISAVSHFTLGAVLEQQEHTAALTDRPAAPDENLPPLLREALQIMDSDDGEQAFLHGLESLIRGFEVQLTALLQIV
modifications: Modified tetracycline repressor
notes: revTetR(BD) E15G N18K R94H G96G G102V
As to B2, the “β-Galactosidase Activity, Cultured Without ATC” value worked out at 58.5651 and the “β-Galactosidase Activity, Cultured With ATC” value is 1.8337.

B3: TetRrevAF4/13: revTetR(BD) A13A E15D L17L E19V I22I E23K R94H G95N (protein)
chain: MSRLDKSKVINSALDLLNVVGIKGLTTRKLAQKLGVEQPTLYWHVKNKRALLDALAVEILARHHDYSLPAAGESWQSFLRNNAMSFRRALLRYHNGAKVHLGTRPDEKQYDTVETQLRFMTENGFSLRDGLYAISAVSHFTLGAVLEQQEHTAALTDRPAAPDENLPPLLREALQIMDSDDGEQAFLHGLESLIRGFEVQLTALLQIV
modifications: Modified tetracycline repressor
notes: revTetR(BD) A13A E15D L17L E19V I22I E23K R94H G95N
Regarding B3, the “β-Galactosidase Activity, Cultured Without ATC” value is given as 98.8886 and the “β-Galactosidase Activity, Cultured With ATC” value is 2.5827.

B4: TetRrevAF5/5: revTetR(BD) L14V L17F V20A I22M L25F D95H (protein)
chain: MSRLDKSKVINSAVELFNEAGMEGFTTRKLAQKLGVEQPTLYWHVKNKRALLDALAVEILARHHDYSLPAAGESWQSFLRNNAMSFRRALLRYRHGAKVHLGTRPDEKQYDTVETQLRFMTENGFSLRDGLYAISAVSHFTLGAVLEQQEHTAALTDRPAAPDENLPPLLREALQIMDSDDGEQAFLHGLESLIRGFEVQLTALLQIV
modifications: Modified tetracycline repressor
notes: revTetR(BD) L14V L17F V20A I22M L25F D95H
Regarding B4, the “β-Galactosidase Activity, Cultured Without ATC” value was found to be 100.546 and the “β-Galactosidase Activity, Cultured With ATC” value is 1.6948.

B5: TetRrevAtc4-14: revTetR(BD) L51L D53Q V57V E58K L60L A61V R62P H63D (protein)
chain: MSRLDKSKVINSALELLNEVGIEGLTTRKLAQKLGVEQPTLYWHVKNKRALLQALAVKILVPDHDYSLPAAGESWQSFLRNNAMSFRRALLRYRDGAKVHLGTRPDEKQYDTVETQLRFMTENGFSLRDGLYAISAVSHFTLGAVLEQQEHTAALTDRPAAPDENLPPLLREALQIMDSDDGEQAFLHGLESLIRGFEVQLTALLQIV
modifications: Modified tetracycline repressor
notes: revTetR(BD) L51L D53Q V57V E58K L60L A61V R62P H63D
Regarding B5, the “β-Galactosidase Activity, Cultured Without ATC” value amounted to 62.985 and the “β-Galactosidase Activity, Cultured With ATC” value is 25.025.

B6: TetRrevAF5/1: revTetR(BD) L14F D95A V99G (protein)
chain: MSRLDKSKVINSAFELLNEVGIEGLTTRKLAQKLGVEQPTLYWHVKNKRALLDALAVEILARHHDYSLPAAGESWQSFLRNNAMSFRRALLRYRAGAKGHLGTRPDEKQYDTVETQLRFMTENGFSLRDGLYAISAVSHFTLGAVLEQQEHTAALTDRPAAPDENLPPLLREALQIMDSDDGEQAFLHGLESLIRGFEVQLTALLQIV
modifications: Modified tetracycline repressor
notes: revTetR(BD) L14F D95A V99G
For the molecule B6, the “β-Galactosidase Activity, Cultured Without ATC” value was found to be 100.053 and the “β-Galactosidase Activity, Cultured With ATC” value is 1.072.
